This is an account of results in patent publication US20230382979A1 (ADAPTIVE BIOTECHNOLOGIES, published 2023).

The target of assay [1] is SARS-CoV-2 spike protein, WA1/2020, borne on lentiviral pseudovirus (SARS-CoV-2, WA01/2020 strain, UniProt P0DTC2 14-1273). Put plainly: cell-based or functional assay.
In assay [2] the target is S2 subunit of the SARS-CoV-2 spike protein, WA01/2020 strain (SARS-CoV-2, WA01/2020 strain, UniProt P0DTC2 686-1213). Put plainly: ELISA, antibody at 0.1 ug/mL. For orientation: ELISA stands for enzyme-linked immunosorbent assay.
Assay [3] concerns the target T1, SARS-CoV-2 nucleocapsid (N) protein (SARS-CoV-2, UniProt P0DTC9 1-419). Nature of the assay: ELISA, antibody at 0.1 ug/mL.
For assay [4], the target named is S1 subunit of the SARS-CoV-2 spike protein, WA01/2020 strain (SARS-CoV-2, WA01/2020 strain, UniProt P0DTC2 16-685). Put plainly: ELISA screening, antibody concentration not given.
Assay [5] has as its target T1, SARS-CoV-2 nucleocapsid (N) protein. Nature of the assay: ELISA screening, antibody concentration not given.

B1: antibody 980 (antibody, V domains shown)
VH: QVQLVESGGGVVQPGRSLRLSCAASGFTFSRYGMHWVRQAPGKGLEWVALISSGGSNKYYADSVKGRFTISRDNSKNTLYLEMNSLRAEDTAVYYCAKDAIYDYIWGAYRENWFDPWGQGTLVTVSS
VL: DIQMTQSPSSLSASVGDRVTITCRASQSISNYLNWYQQKPGKAPNLLIYAASSLQSGVPSRFSGSGSGTDFTLTISSLQPEDFATYYCQQTSSPPLTFGQGTKVEIK
Consider B1, for which the “Pseudo Neut, WA1/2020 IC50 (pM)” value in assay [1] turned out to be 952 pM. The binding result in assay [2] and in assay [3] was “no binding (tested: 0.1 ug/mL)” each time.

B2: antibody 2619 (antibody, V domains shown)
VH: EVQLVESGGGLVQPGRSLRLSCAASGFTFDDYAMHWVRQAPGKGLEWVSGISWNSGSIGYADSVKGRFTLSRDNAKNSLFLQMDSLRAEDTALYYCAKDVSYRSGSYYRFWGGSGSWGQGTLVTVSS
VL: DIQMTQSPSSLSASVGDRVTITCRASLSIRSYLNWYQQKPGKPPKLLIYAASSLQSGVPSRFSGSGSGTDFTLTISSLQPEDFATYYCQQSYSTPLTFGGGTKVEIK
Consider B2, for which the “Pseudo Neut, WA1/2020 IC50 (pM)” value in assay [1] came out at 213 pM.

B3: antibody 2892 (antibody, V domains shown)
VH: QVQLVQSGAEVKKPGSSVKVSCKASGDAFISYAISWVRQAPGQGLEWMGGIIPIFGTANYAQKFQGRVTISADESTSTAYMELSRLRSEDTAVYYCARGGPEPYGSGSGYTPRYNWFDPWGQGTLVTVSS
VL: QSALTQPRSVSGSPGQSVTISCTGTSSDVGGYNYVSWYQQHPGKAPKFMIYDVNRRPSGVPDRFSGSKSGNTASLTISGLQAEDEADYYCCSYAGTYTWVFGGGTKLTVL
As to B3, the “Pseudo Neut, WA1/2020 IC50 (pM)” value in assay [1] amounted to 65 pM. Besides, the binding result in assay [2] and in assay [3] was “no binding (tested: 0.1 ug/mL)” each time.

B4: antibody 2729 (antibody, V domains shown)
VH: QVTLKESGPVLVKPTETLTLTCTVSGFSLSNARMGVSWIRQPPGKALEWLAHIFSNDEKSYSTYLKSRLTISKDSSKSQVVLTMTIMDPVDTATYYCARTAGRYSSRWGHYYYYMDVWGKGTTVTVSS
VL: NFMLTQPHSVSESPGKTVTISCTGSNGSIASNFMQWYQQRPGSAPTIVIYEDNQRPSGVPDRFSGSIDGSSNSASLTISGLKTEDEADYYCQSYDSSDSDLGVFGGGTKLTVL
As to B4, the “Pseudo Neut, WA1/2020 IC50 (pM)” value in assay [1] was found to be 584 pM. Further, the binding result in assay [2] and in assay [3] was “no binding (tested: 0.1 ug/mL)” each time.

B5: antibody 2706 (antibody, V domains shown)
VH: QVQLVQSGAEVKKPGSSVKVSCKASGGTFSTYAISWVRQAPGQGLEWMGGIIPLFATANYAQNFQGRVTITADKSTSTAYMELSSLRSEDTAVYYCASVRLHLEELSLSHQGDYYYGLDVWGQGTTVTVSS
VL: DIQMTQSPSSLSASVADRVTITCQASQDISHYLNWYQQKPGKAPQLLIYDASKLETGAPSRFSGSGSGTDFTFTISSLQPEDIATYYCQQYDHLPLTFGGGSKVEIK
Regarding B5, the “Pseudo Neut, WA1/2020 IC50 (pM)” value in assay [1] stood at 795 pM. In addition, the binding result in assay [2] and in assay [3] was “no binding (tested: 0.1 ug/mL)” throughout.

B6: antibody 1679 (antibody, V domains shown)
VH: QITLKESGPTLVKPTQTLTLTCTFSGFSLSTVGVGVAWIRQPPGKALEWLALIYWDDDKRYSPSLKSRLTITKDTSKNHVVLTMTNMDPVDTATYYCAHHIIAALVDVWGKGTTVTVSS
VL: QSALTQPASVSGSPGQSITISCTGTSSDVGGNNYVSWYQHHPGEAPKLMIYEVSNRPSGVSNRFSGSKSGNTASLTISGLQAEDEADYYCSSYTTSSTLVVFGGGSKLTVL
For the molecule B6, the “Pseudo Neut, WA1/2020 IC50 (pM)” value in assay [1] was greater than 163 pM.

B7: antibody 2020 (antibody, V domains shown)
VH: QVQLVQSGAEVKKPGASVKVSCKASGYTFTDYFMHWVRQAPGQGLEWMGWVNPLSGGTNFAQKFQGRVTMTSDTSITTVYMELSRLRSDDTAVYYCARDPPLYSSTYGMDVWGQGTTVTVSS
VL: QSALTQPASVSGSPGQSITISCTGTSSDVGAYNYVSWYQQHPGKAPKLMIYDVSDRPSGVSNRFSGSKSGNTASLTISGLQAEDEADYYCSSYTISSSVVFGGGTKLTVL
B7: the “Pseudo Neut, WA1/2020 IC50 (pM)” value in assay [1] was found to be 214 pM. The binding result in assay [2] and in assay [3] was “no binding (tested: 0.1 ug/mL)” throughout.

B8: antibody 1213 (antibody, V domains shown)
VH: QMQLVQSGAEVKKTGSSVKVSCEASENTFTNRYLHWVRQAPGQALEWMGWITPFQGNTHYAQKFQDRVTITRDRSMNTVYMELSSLRSEDTAIYYCASGGQYGPGSYYFEFWGQGTLVTVSS
VL: EIVMTQSPATLSVSPGERATLSCRASQSIRNNLAWYRQKPGQAPRLLIYGASTRAAGVPARFSGSGSGTEFTLTISSLQSEDFAVYYCQQYINWPPLTFGGGTKVEIK
Regarding B8, the “Pseudo Neut, WA1/2020 IC50 (pM)” value in assay [1] is 90600 pM.

B9: antibody 1227 (antibody, V domains shown)
VH: QMQLVQSGAEVKKTGSSVKVSCEASGYTFTNRYLHWVRQAPGQALEWMGWITPFQGNTNYAQKFQDRVTITRDMSMNTVYMELSSLRSEDTAKYYCASGGQYGAGSYYLEDWGQGTLVTVSS
VL: EIVMTQSPATLSVSPGERATLSCRASQSVRSNLAWYRQKPGQAPRLLIYGASTRATGVPARFSGSGSGTEFTLTISSLQSEDFAVYYCQQYINWPPLTFGGGTRVEIK
For B9, the “Pseudo Neut, WA1/2020 IC50 (pM)” value in assay [1] came to 116000 pM.

B10: antibody 1231 (antibody, V domains shown)
VH: QVQLVQSGSELKKPGASVKVSCTGYGYTFTSYAMNWVRQAPGQGLEWMGWINTNTGHPAYAQGFTGRFVFSLDSSVSTAYLQISSLKAEDTAVYYCATTIRAGGYFDFWGQGTLVTVSS
VL: DIQLTQSPSFLSASVGDRVTITCRASQGISSYLAWFQQKPGKAPKLLIYVVSILQSGVPSRFSGSGSGTEFTLTISSLQPEDFATYYCQQLNSYPYTFGQGTKLEIK
Consider B10, for which, in assay [1], the “Pseudo Neut, WA1/2020 IC50 (pM)” value worked out at 95000 pM.

B11: antibody 1864 (antibody, V domains shown)
VH: QVQLQESGPGLVKPSETLSLTCTVSGGSINYYYWSWIRQPPGKGLEWIGFIYSSGTTNYNPSLKSRVTMSVDSSKSQFSLKLSSVTAADSAVYYCARHSRSCTNGVCQTYYYYALDVWGHGTTVTVSS
VL: QSVLTQPPSVSGAPGQRVTISCTGSSSNIGAGYDVHWYQQLPGTAPKLLIYGNSNRPSGVPDRFSASKSGTSASLAIAGLQPEDEGDYYCQSYDGSLSESGVFGGGTRLTVL
With B11, the binding result in assay [4] and in assay [5] was “no binding (tested: not printed)” each time.

B12: antibody 1851 (antibody, V domains shown)
VH: QVQLQESGPGLVKPSETLSLTCTVSGGSINYYYWSWIRQSPGKGLEWIGFIYSSGTTNYNPSLKSRVTMSVDSSKSQFSLKLSSVTAADSAVYYCARHSRSCTNGVCQTYYYYALDVWGHGTTVTVSS
VL: QSVLTQPPSVSGAPGQRVTISCTGSSSNIGAGYDVHWYQQLPGTAPKLLIYGNSNRPSGVPDRFSASKSGTSASLAIAGLQPEDEGDYYCQSYDGSLSESGVFGGGTRLTVL
For B12, the binding result in assay [4] and in assay [5] was “no binding (tested: not printed)” in each case.

B13: antibody 1870 (antibody, V domains shown)
VH: QVQLQESGPGLVKPSETLSLTCSVSGGSINYYYWSWIRQPPGKGLEWIGFIYSSGTTNYNPSLKSRVTMSVDTSKNQFSLKLSSVTAADSAVYYCARHSRSCTNGVCQTYYYYALDVWGHGTTVTVSS
VL: QSVLTQPPSVSGAPGQRVTISCTGSSSNIGAGYDVHWYQQLPGTAPKLLIYGNSNRPSGVPDRFSASKSGTSASLAIAGLQAEDEGDYYCQSYDGSLSESGVFGGGTRLTVL
In the case of B13, the binding result in assay [4] and in assay [5] was “no binding (tested: not printed)” each time.

B14: antibody 4441 (antibody, V domains shown)
VH: EVQLVESGGGLVQPGRSLRLSCAASGLTFEDYAMHWVRQPPGKGLEWVSGVSWNSGTIGYADSVKGRFTISRDNAKNSLYLHMRSLGAEDTAMYYCAKDMGGRFSFFSLENDAFDIWGQGTMVIVSS
VL: SYELTQPPSVSVSPGQTARITCSGDALPKQSTYWYQQKPGQAPVLVIYKDIERPSGIPERFSGSSSGTTVTLTISGVQAEDEADYYCQSADSSDTYVFGTGTKVTVL
Consider B14, for which the “Pseudo Neut, WA1/2020 IC50 (pM)” value in assay [1] stood at 276 pM. In addition, the binding result in assay [2] and in assay [3] was “no binding (tested: 0.1 ug/mL)” in each case.

B15: antibody 935 (antibody, V domains shown)
VH: EVQLVESGGGLVQPGGSLRLSCAASGFTVSSNYMSWVRQAPGKGLEWVSVIYSGGSTFYADSVKGRFTISRDNSRNTLYLQMNSLRAEDTAVYYCARDWGEFFFDFWGQGALVTVSS
VL: EIVLTQSPGTLSLSPGERATLSCRASQTISSSYLAWYQQKPGQAPRLLISGASSRATGIPDRFSGSGSGTDFTLTISRLEPEDFAVYYCQQYGSSPRTFGQGTNVEIK
Consider B15, for which the “Pseudo Neut, WA1/2020 IC50 (pM)” value in assay [1] was 420 pM.

B16: antibody 3086 (antibody, V domains shown)
VH: QVQLQESGPGLVKPSETLSLTCTVSGGSISGHYWSWIRQPPGKGLEWIGYIYYSGSTNYNPSLKSRVTISVDTSVNQFSLKLSSVTAADTAVYYCARQEARDAVGNYFFDSWGQGTLVTVSS
VL: QSALTQPASVSGSPGQSITISCSGTSSDIGSYDLVSWYQQHPGKAPKLLIYDVTKRPSGVSHRFSGSKSGNTASLTISGLQGEDEADYYCCSYVHFSTWVFGGGTKLTVL
In the case of B16, the “Pseudo Neut, WA1/2020 IC50 (pM)” value in assay [1] was 82 pM.

B17: antibody 1826 (antibody, V domains shown)
VH: QVQLQESGPGLVKPSETLSLTCSVTGGSTNYYYWSWIRQPPGKGLEWIGYIYYSGTTNYNPSLKDRVTMSVDKSKTQLSLKLNSVTAADTAVYYCARHARHCTNGVCQTYYYYGLDVWGLGTTVAVSA
VL: QSVLTQPPSVSAAPGQRVTISCSGSSSNIGAGYDVHWYQHLPGTAPKLLIYNNNNRPSGVPDRFSASRSGTSASLAITGVQTEDEADYYCQSFDGRLSESGVFGGGTKLTVL
As for B17, the binding result in assay [4] and in assay [5] was “no binding (tested: not printed)” each time.
